Experimental data published in patent US20250340902A1, “GENE THERAPY FOR BVES-RELATED DISORDERS” (OHIO STATE INNOVATION FOUNDATION, priority 2022, published 2025).

Key:
Experiment in all cases: anti-HA co-IP from muscle, MS; CTRL 0
[1] = molecular target: 40S ribosomal protein S27 (Mus musculus) (UniProt Q6ZWU9)
[2] = molecular target: ATP-binding cassette sub-family F member 1 (Mus musculus) (UniProt Q6P542)
[3] = molecular target: ATP-binding cassette sub-family F member 2 (Mus musculus) (UniProt Q99LE6)
[4] = molecular target: ATPase family AAA domain-containing protein 3 (Mus musculus) (UniProt Q925I1)
[5] = molecular target: Acetyl-CoA acetyltransferase, mitochondrial (Mus musculus) (UniProt Q8QZT1)
[6] = molecular target: Actin-binding LIM protein 2 (Mus musculus) (UniProt Q8BL65)
[7] = molecular target: Carboxypeptidase N catalytic chain (Mus musculus) (UniProt Q9JJN5)
[8] = molecular target: Cell cycle progression protein 1 (Mus musculus) (UniProt Q640L3)
[9] = molecular target: Chloride channel protein 1 (Mus musculus) (UniProt Q64347)
[10] = molecular target: Coatomer subunit epsilon (Mus musculus) (UniProt O89079)
[11] = molecular target: Collagen alpha-1(XV) chain (Mus musculus) (UniProt O35206)
Cullin-1 (Mus musculus) = Cullin-1 (Mus musculus) (UniProt Q9WTX6)
Cullin-2 (Mus musculus) = Cullin-2 (Mus musculus) (UniProt Q9D4H8)
[12] = molecular target: DnaJ homolog subfamily B member 12 (Mus musculus) (UniProt Q9QYI4)
Dysferlin (Mus musculus) = Dysferlin (Mus musculus) (UniProt Q9ESD7)
Emerin (Mus musculus) = Emerin (Mus musculus) (UniProt O08579)
[13] = molecular target: Exosome complex exonuclease RRP44 (Mus musculus) (UniProt Q9CSH3)
[14] = molecular target: Fatty acid-binding protein, adipocyte (Mus musculus) (UniProt P04117)
Fibulin-1 (Mus musculus) = Fibulin-1 (Mus musculus) (UniProt Q08879)
[15] = molecular target: Flavin reductase (NADPH) (Mus musculus) (UniProt Q923D2)
[16] = molecular target: Glutamate dehydrogenase 1, mitochondrial (Mus musculus) (UniProt P26443)
[17] = molecular target: LEM domain-containing protein 2 (Mus musculus) (UniProt Q6DVA0)
[18] = molecular target: Methylcrotonoyl-CoA carboxylase subunit alpha, mitochondrial (Mus musculus) (UniProt Q99MR8)
[19] = molecular target: Monocarboxylate transporter 4 (Mus musculus) (UniProt P57787)
[20] = molecular target: N-alpha-acetyltransferase 50 (Mus musculus) (UniProt Q6PGB6)
[21] = molecular target: NADH dehydrogenase [ubiquinone] iron-sulfur protein 6, mitochondrial (Mus musculus) (UniProt P52503)
[22] = molecular target: Plasma membrane calcium-transporting ATPase 1 (Mus musculus) (UniProt G5E829)
[23] = molecular target: RNA methyltransferase 10 homolog C (Mus musculus) (UniProt Q3UFY8)
[24] = molecular target: RUN and FYVE domain-containing protein 1 (Mus musculus) (UniProt Q8BIJ7)
[25] = molecular target: Ran GTPase-activating protein 1 (Mus musculus) (UniProt P46061)
[26] = molecular target: Sodium/calcium exchanger 3 (Mus musculus) (UniProt S4R2P9)
[27] = molecular target: Sodium/potassium-transporting ATPase subunit alpha-1 (Mus musculus) (UniProt Q8VDN2)
[28] = molecular target: Solute carrier family 12 member 1 (Mus musculus) (UniProt P55014)
[29] = molecular target: Sulfide:quinone oxidoreductase, mitochondrial (Mus musculus) (UniProt Q9R112)
Talin-2 (Mus musculus) = Talin-2 (Mus musculus) (UniProt Q71LX4)
[30] = molecular target: Transmembrane protein 201 (Mus musculus) (UniProt A2A8U2)
[31] = molecular target: U1 small nuclear ribonucleoprotein 70 kDa (Mus musculus) (UniProt Q62376)
[32] = molecular target: U2 small nuclear ribonucleoprotein B″ (Mus musculus) (UniProt Q9CQI7)
[33] = molecular target: mRNA turnover protein 4 homolog (Mus musculus) (UniProt Q9D0I8)

human BVES fused with 3xHA tag, sequence (Q8NE79 other isoform, or with tags, fused parts or gaps limits assumed): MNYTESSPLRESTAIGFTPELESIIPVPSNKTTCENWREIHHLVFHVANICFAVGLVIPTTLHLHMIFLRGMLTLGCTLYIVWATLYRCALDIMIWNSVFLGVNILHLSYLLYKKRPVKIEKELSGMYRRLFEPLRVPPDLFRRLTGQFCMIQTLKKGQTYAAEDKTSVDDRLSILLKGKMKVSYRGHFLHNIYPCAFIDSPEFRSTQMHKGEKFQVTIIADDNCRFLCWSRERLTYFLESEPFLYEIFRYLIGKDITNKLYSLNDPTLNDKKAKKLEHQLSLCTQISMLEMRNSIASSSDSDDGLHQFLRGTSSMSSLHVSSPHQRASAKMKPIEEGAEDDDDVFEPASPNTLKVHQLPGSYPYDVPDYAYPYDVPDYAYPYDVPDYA
RUN and FYVE domain-containing protein 1 (Mus musculus), sequence (Q8BIJ7 whole entry, the tested form may be a part): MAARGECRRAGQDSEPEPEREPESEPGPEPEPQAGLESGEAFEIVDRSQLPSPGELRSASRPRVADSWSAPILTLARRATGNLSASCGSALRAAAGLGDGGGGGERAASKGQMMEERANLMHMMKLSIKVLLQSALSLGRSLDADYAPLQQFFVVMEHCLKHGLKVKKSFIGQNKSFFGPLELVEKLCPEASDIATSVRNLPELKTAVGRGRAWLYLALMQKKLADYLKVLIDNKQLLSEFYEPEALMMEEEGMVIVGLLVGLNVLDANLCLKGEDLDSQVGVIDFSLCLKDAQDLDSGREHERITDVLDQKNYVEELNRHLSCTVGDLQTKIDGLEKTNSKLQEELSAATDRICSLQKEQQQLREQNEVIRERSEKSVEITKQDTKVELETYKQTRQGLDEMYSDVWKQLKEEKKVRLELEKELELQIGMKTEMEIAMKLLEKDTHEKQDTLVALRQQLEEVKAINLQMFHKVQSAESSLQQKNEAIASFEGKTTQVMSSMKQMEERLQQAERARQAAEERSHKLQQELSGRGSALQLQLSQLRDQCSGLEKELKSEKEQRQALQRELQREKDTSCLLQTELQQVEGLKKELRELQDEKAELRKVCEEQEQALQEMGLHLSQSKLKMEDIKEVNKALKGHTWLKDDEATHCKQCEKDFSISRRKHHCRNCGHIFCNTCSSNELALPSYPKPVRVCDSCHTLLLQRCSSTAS
Dysferlin (Mus musculus), sequence (Q9ESD7 whole entry): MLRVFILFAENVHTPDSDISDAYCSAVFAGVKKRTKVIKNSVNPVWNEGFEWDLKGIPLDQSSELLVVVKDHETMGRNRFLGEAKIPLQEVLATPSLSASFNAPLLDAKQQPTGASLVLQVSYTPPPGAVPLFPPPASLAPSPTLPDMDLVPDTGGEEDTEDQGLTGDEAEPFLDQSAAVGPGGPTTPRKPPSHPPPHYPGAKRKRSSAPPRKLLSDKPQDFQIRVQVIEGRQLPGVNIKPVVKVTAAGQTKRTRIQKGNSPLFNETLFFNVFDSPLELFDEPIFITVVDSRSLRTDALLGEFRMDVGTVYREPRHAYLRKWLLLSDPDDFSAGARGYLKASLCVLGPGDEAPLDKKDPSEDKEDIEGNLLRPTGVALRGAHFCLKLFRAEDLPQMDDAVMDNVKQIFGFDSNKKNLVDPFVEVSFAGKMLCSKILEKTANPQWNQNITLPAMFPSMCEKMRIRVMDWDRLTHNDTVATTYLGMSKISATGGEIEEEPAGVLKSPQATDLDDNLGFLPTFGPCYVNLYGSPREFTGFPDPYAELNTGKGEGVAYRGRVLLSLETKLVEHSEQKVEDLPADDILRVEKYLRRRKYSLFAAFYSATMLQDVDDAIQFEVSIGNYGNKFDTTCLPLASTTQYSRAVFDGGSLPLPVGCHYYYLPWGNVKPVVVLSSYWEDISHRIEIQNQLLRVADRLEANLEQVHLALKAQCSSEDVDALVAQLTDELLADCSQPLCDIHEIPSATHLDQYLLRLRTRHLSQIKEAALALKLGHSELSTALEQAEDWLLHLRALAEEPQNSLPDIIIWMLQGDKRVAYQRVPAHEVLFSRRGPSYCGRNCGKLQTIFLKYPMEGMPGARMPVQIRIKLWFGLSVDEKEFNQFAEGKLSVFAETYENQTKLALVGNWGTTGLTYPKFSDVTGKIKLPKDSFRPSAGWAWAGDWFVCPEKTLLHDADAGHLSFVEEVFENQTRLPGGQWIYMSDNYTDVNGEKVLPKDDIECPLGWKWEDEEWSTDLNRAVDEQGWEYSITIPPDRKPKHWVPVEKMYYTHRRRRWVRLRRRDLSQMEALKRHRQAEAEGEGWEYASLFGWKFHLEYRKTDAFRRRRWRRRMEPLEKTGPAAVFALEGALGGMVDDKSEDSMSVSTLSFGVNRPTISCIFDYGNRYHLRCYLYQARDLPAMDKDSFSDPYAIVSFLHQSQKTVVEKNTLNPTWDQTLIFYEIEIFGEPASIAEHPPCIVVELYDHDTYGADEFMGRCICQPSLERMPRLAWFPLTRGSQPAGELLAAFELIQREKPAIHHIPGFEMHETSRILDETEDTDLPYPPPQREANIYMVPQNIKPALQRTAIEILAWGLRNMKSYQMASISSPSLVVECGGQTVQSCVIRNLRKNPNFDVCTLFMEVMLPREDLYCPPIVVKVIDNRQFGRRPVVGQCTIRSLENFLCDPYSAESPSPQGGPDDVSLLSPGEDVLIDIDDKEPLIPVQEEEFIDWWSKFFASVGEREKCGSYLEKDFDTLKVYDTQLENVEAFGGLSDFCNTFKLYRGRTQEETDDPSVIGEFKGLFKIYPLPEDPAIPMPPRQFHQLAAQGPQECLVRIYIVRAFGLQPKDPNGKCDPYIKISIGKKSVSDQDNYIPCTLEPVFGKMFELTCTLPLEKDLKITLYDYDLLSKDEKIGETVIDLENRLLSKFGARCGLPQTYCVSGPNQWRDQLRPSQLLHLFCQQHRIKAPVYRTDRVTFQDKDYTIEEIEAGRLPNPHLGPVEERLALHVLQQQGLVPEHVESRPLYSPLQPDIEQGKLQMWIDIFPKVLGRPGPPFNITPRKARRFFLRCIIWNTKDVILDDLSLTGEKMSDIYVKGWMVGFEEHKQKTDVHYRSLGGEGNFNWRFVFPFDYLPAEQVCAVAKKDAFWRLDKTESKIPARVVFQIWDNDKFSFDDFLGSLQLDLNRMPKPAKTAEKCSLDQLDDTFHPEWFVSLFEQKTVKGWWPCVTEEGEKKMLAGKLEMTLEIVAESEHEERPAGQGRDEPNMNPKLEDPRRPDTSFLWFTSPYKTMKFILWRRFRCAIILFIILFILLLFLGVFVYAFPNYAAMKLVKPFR
Solute carrier family 12 member 1 (Mus musculus), sequence (P55014 whole entry): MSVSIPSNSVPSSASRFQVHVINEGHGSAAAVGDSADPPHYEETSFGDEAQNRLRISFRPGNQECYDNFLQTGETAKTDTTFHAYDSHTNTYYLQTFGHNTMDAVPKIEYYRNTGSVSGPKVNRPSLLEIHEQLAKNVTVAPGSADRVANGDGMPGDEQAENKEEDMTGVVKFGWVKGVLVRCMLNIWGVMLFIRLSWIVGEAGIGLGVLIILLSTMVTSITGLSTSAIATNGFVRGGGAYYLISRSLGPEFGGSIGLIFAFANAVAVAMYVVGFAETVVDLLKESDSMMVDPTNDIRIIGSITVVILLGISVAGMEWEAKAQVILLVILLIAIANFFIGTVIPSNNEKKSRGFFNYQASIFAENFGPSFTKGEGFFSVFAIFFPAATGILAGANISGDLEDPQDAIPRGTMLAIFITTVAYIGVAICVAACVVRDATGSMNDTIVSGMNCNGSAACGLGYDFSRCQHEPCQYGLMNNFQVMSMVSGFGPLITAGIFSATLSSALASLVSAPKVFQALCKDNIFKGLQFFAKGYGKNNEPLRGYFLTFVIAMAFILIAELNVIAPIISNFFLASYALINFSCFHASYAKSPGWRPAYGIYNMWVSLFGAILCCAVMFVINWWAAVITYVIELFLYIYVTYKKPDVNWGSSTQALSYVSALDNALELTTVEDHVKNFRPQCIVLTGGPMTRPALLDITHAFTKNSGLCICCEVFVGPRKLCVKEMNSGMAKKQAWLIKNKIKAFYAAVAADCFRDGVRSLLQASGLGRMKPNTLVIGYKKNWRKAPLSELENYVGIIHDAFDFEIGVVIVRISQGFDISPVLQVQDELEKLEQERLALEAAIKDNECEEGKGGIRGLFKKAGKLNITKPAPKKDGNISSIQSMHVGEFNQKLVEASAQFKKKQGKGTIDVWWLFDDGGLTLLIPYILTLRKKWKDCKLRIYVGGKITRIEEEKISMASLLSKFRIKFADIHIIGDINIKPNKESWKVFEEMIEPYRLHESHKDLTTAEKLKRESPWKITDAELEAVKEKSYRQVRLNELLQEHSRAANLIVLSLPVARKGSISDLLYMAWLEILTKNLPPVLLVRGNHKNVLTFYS
ATP-binding cassette sub-family F member 2 (Mus musculus), sequence (Q99LE6 whole entry, the tested form may be a part): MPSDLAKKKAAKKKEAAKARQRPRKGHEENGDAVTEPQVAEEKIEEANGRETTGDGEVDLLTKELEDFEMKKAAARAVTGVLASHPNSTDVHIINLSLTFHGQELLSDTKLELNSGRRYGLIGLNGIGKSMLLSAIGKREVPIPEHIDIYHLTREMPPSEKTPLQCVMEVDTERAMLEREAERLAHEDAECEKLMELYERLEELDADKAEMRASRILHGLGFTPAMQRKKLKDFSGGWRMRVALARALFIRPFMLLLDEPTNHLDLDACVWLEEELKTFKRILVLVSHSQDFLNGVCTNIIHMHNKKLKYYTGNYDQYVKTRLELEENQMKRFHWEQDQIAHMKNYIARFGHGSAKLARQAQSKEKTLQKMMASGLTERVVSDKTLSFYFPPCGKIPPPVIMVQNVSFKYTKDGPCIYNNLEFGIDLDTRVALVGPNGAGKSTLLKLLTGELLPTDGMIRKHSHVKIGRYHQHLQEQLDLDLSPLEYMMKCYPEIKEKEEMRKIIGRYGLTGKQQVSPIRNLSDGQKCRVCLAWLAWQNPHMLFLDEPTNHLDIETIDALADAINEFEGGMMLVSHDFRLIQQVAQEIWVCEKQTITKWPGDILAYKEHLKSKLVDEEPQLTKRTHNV
NADH dehydrogenase [ubiquinone] iron-sulfur protein 6, mitochondrial (Mus musculus), sequence (P52503 21-116 limits assumed): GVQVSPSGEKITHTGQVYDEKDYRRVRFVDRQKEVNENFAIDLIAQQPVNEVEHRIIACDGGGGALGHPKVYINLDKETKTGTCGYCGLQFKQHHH

human BVES fused with 3xHA tag (from UniProt Q8NE79 1-360)
AAV9-BVES-HA (IP-MS count) [1]: 2 | AAV9-BVES-HA (IP-MS count) [2]: 4 | AAV9-BVES-HA (IP-MS count) [3]: 2 | AAV9-BVES-HA (IP-MS count) [4]: 3 | AAV9-BVES-HA (IP-MS count) [5]: 5 | AAV9-BVES-HA (IP-MS count) [6]: 2 | AAV9-BVES-HA (IP-MS count) [7]: 4 | AAV9-BVES-HA (IP-MS count) [8]: 2 | AAV9-BVES-HA (IP-MS count) [9]: 13 | AAV9-BVES-HA (IP-MS count) [10]: 2 | AAV9-BVES-HA (IP-MS count) [11]: 7 | AAV9-BVES-HA (IP-MS count) (Cullin-1 (Mus musculus)): 2 | AAV9-BVES-HA (IP-MS count) (Cullin-2 (Mus musculus)): 3 | AAV9-BVES-HA (IP-MS count) [12]: 2 | AAV9-BVES-HA (IP-MS count) (Dysferlin (Mus musculus)): 12 | AAV9-BVES-HA (IP-MS count) (Emerin (Mus musculus)): 6 | AAV9-BVES-HA (IP-MS count) [13]: 2 | AAV9-BVES-HA (IP-MS count) [14]: 2 | AAV9-BVES-HA (IP-MS count) (Fibulin-1 (Mus musculus)): 3 | AAV9-BVES-HA (IP-MS count) [15]: 2 | AAV9-BVES-HA (IP-MS count) [16]: 6 | AAV9-BVES-HA (IP-MS count) [17]: 2 | AAV9-BVES-HA (IP-MS count) [18]: 3 | AAV9-BVES-HA (IP-MS count) [19]: 12 | AAV9-BVES-HA (IP-MS count) [20]: 2 | AAV9-BVES-HA (IP-MS count) [21]: 2 | AAV9-BVES-HA (IP-MS count) [22]: 34 | AAV9-BVES-HA (IP-MS count) [23]: 2 | AAV9-BVES-HA (IP-MS count) [24]: 5 | AAV9-BVES-HA (IP-MS count) [25]: 2 | AAV9-BVES-HA (IP-MS count) [26]: 3 | AAV9-BVES-HA (IP-MS count) [27]: 12 | AAV9-BVES-HA (IP-MS count) [28]: 2 | AAV9-BVES-HA (IP-MS count) [29]: 3 | AAV9-BVES-HA (IP-MS count) (Talin-2 (Mus musculus)): 3 | AAV9-BVES-HA (IP-MS count) [30]: 2 | AAV9-BVES-HA (IP-MS count) [31]: 2 | AAV9-BVES-HA (IP-MS count) [32]: 2 | AAV9-BVES-HA (IP-MS count) [33]: 2
